Assay [1] has as its system adiposome a. In words: Recruitment of resident proteins, functional proteins and apolipoprotein to adiposomes (SDS-PAGE, silver staining). It counts as binding. The protocol: a1, 5 μg SMT3-Perilipin-2 proteins, 25 ng Ulp1 and 500 adiposome a prepared in Example 1 were mixed to obtain 1000 mixed system.
a2, After the step a1 was completed, a mixed system was obtained by incubating at room temperature for 1 h (the practical operation may be performed on ice).
a3, After the step a2 was completed, the mixed system was taken to centrifuge at 20000 g for 5 min, and the liquid phase system presented two layers (the upper layer was adiposomes). The lower solution was drawn out and the upper layer was kept.
a4, The upper layer after the step a3 was resuspended into 1000 buffer B and centrifuged at 20000 g for 5 min, and the liquid phase system presented two layers (the upper layer was adiposomes). The lower solution was drawn out and the upper layer was kept.
a5, The upper layer after the step a4 was resuspended into 1000 buffer B and centrifuged at 20000 g for 5 min, and the liquid phase system presented two layers. The lower solution was drawn out and the upper layer was kept (i.e., adiposomes).
5 μg SMT3-Perilipin-2 proteins, adiposomes obtained in the step a5 and the lower solution drawn in the step a3 were all subjected to SDS-PAGE, followed by silver staining detection.
b1, 5 μg MLDS proteins and 50 μl adiposome a prepared in Example 1 were mixed to obtain 1000 mixed system.
b2, After the step b1 was completed, a mixed system was obtained by incubating at room temperature for 1 h (the practical operation may be performed on ice).
b3, After the step b2 was completed, the mixed system was taken to centrifuge at 20000 g for 5 min, and the liquid phase system presented two layers (the upper layer was adiposomes). The lower solution was drawn out and the upper layer was kept.
b4, The upper layer after the step b3 was resuspended into 1000 buffer B and centrifuged at 20000 g for 5 min, and the liquid phase system presented two layers (the upper layer was adiposomes). The lower solution was drawn out and the upper layer was kept.
b5, The upper layer after the step b4 was resuspended into 1000 buffer B and centrifuged at 20000 g for 5 min, and the liquid phase system presented two layers. The lower solution was drawn out and the upper layer was kept (i.e., adiposomes).
5 μg MLDS proteins, adiposomes obtained in the step b5 and the lower solution drawn in the step b3 were all subjected to SDS-PAGE, followed by silver staining detection.
The MLDS proteins in the step (2) were replaced with MDT-28 proteins, without other changes in other steps. The results were seen from lanes 4, 5 and 6 in FIG. 6 (lane 4 was total proteins (MDT-28 proteins), lane 5 was adiposome recruited proteins, and lane 6 was solution proteins). […] The adiposomes recruited with MDT-28 proteins were named as artificial lipid droplet MDT-28.
The MLDS proteins in the step (2) were replaced with Bovine serum albumin, without other changes in other steps. The results were seen from lanes 11, 12 and 13 in FIG. 6 (lane 11 was total proteins (Bovine serum albumin), lane 12 was adiposome recruited proteins, and lane 13 was solution proteins).
SMT3-Perilipin-2 proteins in the (1) of step 1 were replaced with SMT3-ATGL proteins, and 50 μl adiposome a was replaced with 30 μl adiposome a, without other changes in other steps, to obtain adiposomes recruited with ATGL.
5 μg MLDS proteins in the (2) of step 1 were replaced with 9 μg Apo A-I, without other changes in other steps, to obtain adiposomes recruited with Apo A-I. The results were seen from B in FIG. 10 (lane 1 was adiposome recruited proteins, lane 2 was solution proteins, and lane 3 was total proteins (Apo A-I)). […] The adiposome recruited with Apo A-I was named as artificial lipoprotein Apo A-I.

Assay [2] deals with adiposome a. In words: Determination of protein saturation degree on adiposomes. To be noted: Western blot. The class given is binding. The protocol: Determination of protein saturation degree: SMT3-Perilipin-2 proteins, 25 ng Ulp1 and 30 μl adiposome a prepared in Example 1 were mixed to obtain 50 μl mixed system, and the concentrations of SMT3-Perilipin-2 proteins in the mixed system were 0.015 μg/μl, 0.030 μg/μl, 0.056 μg/μl, 0.080 μg/μl, 0.101 μg/μl, 0.137 μg/μl, 0.166 μg/μl or 0.191 μg/μl. Then, artificial lipid droplets were obtained according to the above steps a2 to a5, and were subjected to SDS-PAGE, followed by staining with colloid blue, or were subjected to Western blot detection using Perilipin-2 antibody as primary antibody. The results were seen from C in FIG. 7 (in which a was the result of colloid blue staining, b was the result of Western blot detection).
Determination of protein saturation degree: SMT3-ATGL proteins, and 500 adiposome a prepared in Example 1 were mixed to obtain 1000 mixed system, and the concentrations of SMT3-ATGL proteins in the mixed system were 0.091 μg/μl, 0.132 μg/μl, 0.171 μg/μl, 0.209 μg/μl, 0.244 μg/μl, 0.278 μg/μl or 0.310 μg/μl. Then artificial lipid droplets were obtained according to the a2 to a5 of step 1, and were subjected to SDS-PAGE, followed by silver staining, or were subjected to Western blot detection using ATGL antibody (Cell Signaling Technology, Danvers, Mass., the product item: 2138) as primary antibody. […]
For orientation: In western blotting, separated proteins are transferred to a membrane and probed.

Setting [3] is: incubating at room temperature for 1 h, SDS-PAGE, silver staining.

“Apo A-I: apolipoprotein A1 from human, purified per Peitsch et al. 1989”: the “proteins recruited to adiposome a” value in assay [1] (setting [3]) is “about 50%”.

As to “Bovine serum albumin: purchased from Sigma, product item A4612; control protein [reference compound]”, the “recruitment to adiposome a (in words)” value in assay [1] (setting [3]) is “no Bovine serum albumin was recruited”.

B1: ATGL: functional protein adipose triacylglycerol lipase, SEQ ID NO: 8 (protein)
chain: MFPREKTWNISFAGCGFLGVYYVGVASCLREHAPFLVANATHIYGASAGALTATALVTGVCLGEAGAKFIEVSKEARKRFLGPLHPSFNLVKIIRSFLLKVLPADSHEHASGRLGISLTRVSDGENVIISHFNSKDELIQANVCSGFIPVYCGLIPPSLQGVRYVDGGISDNLPLYELKNTITVSPFSGESDICPQDSSTNIHELRVTNTSIQFNLRNLYRLSKALFPPEPLVLREMCKQGYRDGLRFLQRNGLLNRPNPLLALPPARPHGPEDKDQAVESAQAEDYSQLPGEDHILEHLPARLNEALLEACVEPTDLLTTLSNMLPVRLATAMMVPYTLPLESALSFTIRLLEWLPDVPEDIRWMKEQTGSICQYLVMRAKRKLGRHLPSRLPEQVELRRVQSLPSVPLSCAAYREALPGWMRNNLSLGDALAKWEECQRQLLLGLFCTNVAFPPEALRMRAPADPAPAPADPASPQHQLAGPAPLLSTPAPEARPVIGALGL
modifications: ATGL protein
B1: the “fraction of protein recruited to adiposome a” value in assay [1] (SMT3-ATGL proteins, 30 μl adiposome a, incubating at normal temperature or 4° C.) is “about ⅓”. Further, the “protein concentration in the reaction system at which recruitment on adiposomes reached saturation” value in assay [2] (0.091-0.310 μg/μl SMT3-ATGL proteins, silver staining) is 0.209 µg/µL.

B2: MLDS proteins: lipid droplet resident protein of oleaginous bacterium RHA1, SEQ ID NO: 2 (protein)
chain: MTDQKTIDSVKTSLYAAVGAGDVVVQAVADVVAQVRSRAESTQGDVEERVGGAKERIAGLQEEVTEGVENLRDRLAGLPSELPEELAELREKFTADELRKVAEAYLKVASDLYTSLAERGEDTVERIRKQPVVEEGIGRAETAFGDAVELTEEALGTVARQTRAVGEQAAKLAGRASGRISDTAEGLGEAIADAGDEAALKVLDLGDQAEEASKDAADRVTATAADVQARADKAAPAKHAAPAKKAAPAKAAATPAPAPAKKAAAPAKKAAPAKKA
modifications: MLDS protein
Turning to B2, the “proteins recruited to adiposome a” value in assay [1] (setting [3]) is on record as “about 80%”.

B3: MDT-28 proteins: nematode lipid droplet resident protein, SEQ ID NO: 4 (protein)
chain: MTDVEQPVSVEDQQAQAQSYYDQVLGNAYVQTAINAYTKTKEFHPLLNSTLNSAEEKVSTVGNYAAQKAYDGYNSYYVKPKNTAYEAVSYGTERAKTAVESGKQAAIVGGTFGIGAAVVLTQFSLALSAGGAALVLEQVDSAKKLGSSAISTIKEAELAVEHRIFSALHQAQRIAMVPVEKITENTNSLLDILDGAVQKGLNIEVPPSVNLTIGQRVKNLASLIVQGVSNKLFKAHDHVIDPINERARNYLEQLSQSFVLLDIVREKKTWVIEKSNELSTSVFDFKKTLEEEAQKYKVAPEEMLMKHIQSTSEQLSTQLQSLREKGQNVFGDGTKIDSTIDYLENLKKNFTDAEDVYKVRDEVLNEGRQRIAELSTWTTSLLIISAEWQFEPEDLLIEELYFDAPPPVRTRNLYRNRA
modifications: MDT-28 protein
In the case of B3, the “proteins recruited to adiposome a” value in assay [1] (setting [3]) is “about 90%”.

B4: Perilipin-2 proteins: lipid droplet resident protein of mammals, SEQ ID NO: 6, expressed with SMT3 tag cleaved by Ulp1 (protein)
chain: MASVAVDPQPSVVTRVVNLPLVSSTYDLMSSAYLSTKDQYPYLKSVCEMAENGVKTITSVAMTSALPIIQKLEPQIAVANTYACKGLDRIEERLPILNQPSTQIVANAKGAVTGAKDAVTTTVTGAKDSVASTITGVMDKTKGAVTGSVEKTKSVVSGSINTVLGSRMMQLVSSGVENALTKSELLVEQYLPLTEEELEKEAKKVEGFDLVQKPSYYVRLGSLSTKLHSRAYQQALSRVKEAKQKSQQTISQLHSTVHLIEFARKNVYSANQKIQDAQDKLYLSWVEWKRSIGYDDTDESHCAEHIESRTLAIARNLTQQLQTTCHTLLSNIQGVPQNIQDQAKHMGVMAGDIYSVFRNAASFKEVSDSLLTSSKGQLQKMKESLDDVMDYLVNNTPLNWLVGPFYPQLTESQNAQDQGAEMDKSSQETQRSEHKTH
modifications: Perilipin-2 protein
B4: the “proteins recruited to adiposome a” value in assay [1] (setting [3]) was “about 50%”. In addition, the “recruitment on adiposomes, saturation (in words)” value in assay [2] (0.015-0.191 μg/μl SMT3-Perilipin-2 proteins, colloid blue staining) is listed as “saturable”.

(Values after patent publication US10987431B2, “Preparation method of adiposomes, and use thereof” (Institute Of Biophysics, Chinese Academy Of Sciences, priority 2015, dated 2021).)
